Measurements taken from patent US20250109212A1.
Where two headings read alike, the source gives them in different places.

Tests used:
[1] = target: full length human CD47 (NCBI #NP_942088.1) on 293F-CD47 cells (human) (UniProt Q08722); experiment: cell-based blocking FACS on 293F-CD47 cells, blocked ligand biotin-labeled human CD172a-Fc, MFI
[2] = target: full length human CD47 (NCBI #NP_942088.1) on 293F-CD47 cells (human) (UniProt Q08722); experiment: FACS on 293F-CD47 cells, detection with goat anti-human IgG (Fc)-PE, MFI
[3] = target: full length human CD47 (NCBI #NP_942088.1) on 293F-CD47 cells (human) (UniProt Q08722); experiment: cell-based blocking FACS on 293F-CD47 cells, blocked ligand biotin-labeled human CD172a-Fc, MFI; remark: listed apart in the source

- IC50 [1]: 1.9 nM
- EC50 [2]: 1.72 nM
- IC50 [3]: 3.25 nM
Substance: SIRPα-isoform2-Fc (Fc fusion)
